From patent US20230348568A1 (US Dept. of Health and Human Services, published 2023)

What was measured:
[1] = molecular target: Epstein-Barr virus glycoprotein 42 (gp42) (Epstein-Barr virus) (UniProt P03205); assay: cell-based or functional assay
[2] = molecular target: EBV gH/gL/gp42 heterotrimer (recombinant protein) (Epstein-Barr virus) (UniProt P03231); assay: BLI cross-competition; gH/gL/gp42 on the biosensor pre-saturated with primary mAb A10, then binding of this secondary mAb measured; high value = secondary blocked
[3] = molecular target: EBV gH/gL/gp42 heterotrimer (recombinant protein) (Epstein-Barr virus) (UniProt P03231); assay: BLI cross-competition; gH/gL/gp42 on the biosensor pre-saturated with primary mAb 4C12, then binding of this secondary mAb measured; high value = secondary blocked
[4] = molecular target: EBV gH/gL/gp42 heterotrimer (recombinant protein) (Epstein-Barr virus) (UniProt P03231); assay: BLI cross-competition; gH/gL/gp42 on the biosensor pre-saturated with primary mAb F2-1, then binding of this secondary mAb measured (self pair); high value = secondary blocked
[5] = molecular target: T1, EBV gH/gL/gp42 heterotrimer (recombinant protein) (Epstein-Barr virus, UniProt P03231 19-679; P03212 23-137); assay: BLI, gH/gL/gp42 on the biosensor, dilution series of Fab (legend box shows 5.00E-07), 300 s association, dissociation to 1200 s
T1 construct: Recombinant complex; also called gH/gL/gh42

[6] = molecular target: T2, Epstein-Barr virus glycoprotein 42 (gp42) (Epstein-Barr virus, UniProt P03205 34-223, limits assumed); assay: cell-based or functional assay
T2 sequence: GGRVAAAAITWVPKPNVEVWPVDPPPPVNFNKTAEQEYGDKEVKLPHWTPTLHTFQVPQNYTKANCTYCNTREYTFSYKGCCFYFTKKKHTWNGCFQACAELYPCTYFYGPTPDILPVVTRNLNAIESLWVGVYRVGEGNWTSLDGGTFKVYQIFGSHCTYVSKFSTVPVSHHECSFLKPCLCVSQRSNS

[7] = molecular target: T2, Epstein-Barr virus glycoprotein 42 …; assay: cell-based or functional assay; remark: listed apart in the source
[8] = molecular target: T2, Epstein-Barr virus glycoprotein 42 …; assay: cell-based or functional assay; remark: listed apart in the source
[9] = molecular target: T1, EBV gH/gL/gp42 heterotrimer …; assay: BLI (Octet RED96e), biotinylated gH/gL/gp42 on streptavidin biosensors, Fab dilution series, 1:1 global fit

For “F2-1 monoclonal antibody (previously described murine anti-gp42 antibody)”, the IC50 titer to block glycoprotein-mediated B cell fusion [1] was 111 µg/mL, the IC50 titer to neutralize EBV infection in B cells [1] was 0.584 µg/mL and the cross-competition (name or unit not given) [2] was 100. It also gave a cross-competition (name or unit not given) [3] of 8.9 and a cross-competition (name or unit not given) [4] of 95.4.

B1: 4C12 Fab (Fab, V domains shown)
VH: EVQLQQSGPELVKPGASVKISCKASGYTFTDYNMHWVKQSHGKNLEWIGFIYLYNGGTGYNQNFKSKATLTVDNSSSTAYMELRSLTSEDSAVFYCARDYYGNPYAMDYWGQGTSVTVSS
VL: DIQMTQTTSSLSASLGDRVTISCRASQDISNYLNWYQQKPDGTVKLLIYYTSRLRSGVPSRFSGSGSGTDYSLTINNLEQEDIATYFCQQGNTLPFTFGSGTKLEIK
notes: Fab of mAb 4C12; how the Fab was made is not described
With B1 the Kd [5] was 57.9 nM.

B2: A10 monoclonal antibody (cynomolgus monkey variable regions on human IgG1 constant region) (antibody, V domains shown)
VH: QVQLQESGPGLVKPSQTLSLTCAISGDSVSSNSATWNWIRQSPSRGLEWLGRTYYRSKWYYDYAQSVQNRISINPDTSKNQFSLQLNSVTPEDMAVYYCARGDFDAFDFWGQGLRVTVSS
VL: SYELTQPPSVSAASGQTARITCGGDNIGSKNVQWYQQKPAQAPVLVIYADSKRPSGVPERFSGSNSGNTATLTISGVEAGDEADYYCQVWDRSSNIFGVGTRLTVLG
In the case of B2, the “effectiveness in blocking B cell fusion relative to F2-1” value [6] is reported as ~50 fold, the “neutralization potency relative to F2-1” value [6] is reported as ~14 fold and the “IC50 titer to neutralize EBV infection in B cells” value [7] is reported as 0.0391 µg/mL. The “IC50 titer to block glycoprotein-mediated B cell fusion” value [8] was 2.41 µg/mL.

B3: A10 Fab (Fab, V domains shown)
VH: QVQLQESGPGLVKPSQTLSLTCAISGDSVSSNSATWNWIRQSPSRGLEWLGRTYYRSKWYYDYAQSVQNRISINPDTSKNQFSLQLNSVTPEDMAVYYCARGDFDAFDFWGQGLRVTVSS
VL: SYELTQPPSVSAASGQTARITCGGDNIGSKNVQWYQQKPAQAPVLVIYADSKRPSGVPERFSGSNSGNTATLTISGVEAGDEADYYCQVWDRSSNIFGVGTRLTVLG
notes: Fab of A10
With B3 the “IC50 titer to block glycoprotein-mediated B cell fusion” value [8] was 1.73 µg/mL, the Kd [9] was 0.149 nM and the koff [9] was 0.000227 s⁻¹. It also gave a kon [9] of 1.54e+06 M⁻¹ s⁻¹.
